Patent US6803198B2, “Carbamate-derivatized nucleosides and oligonucleosides” (ISIS Pharmaceuticals, Inc., priority 1996, dated 2004)

Assays:
[1] = mouse, in vivo
Description: The effect of cholesterol conjugation on the pharmacokinetic properties of the oligonucleotide is determined in mice using ^3H radiolabeled Oligonucleotide VI.

ICAM-1 [2] = experiment: Inhibition of LPS-induced ICAM-1 expression in mouse liver; assay type: in vivo, C57Bl/10 mice; conditions: 10 mg/kg i.v. twice, 24 h and 2 h before LPS; liver RNA 4 h after LPS
VCAM-1 = VCAM-1 expression in cell culture (target specificity control); assay type: cell-based, mouse; conditions: isotype protein VCAM-1
From the text: Cholesterol-oligonucleotide assays for ICAM-1 are done in the bEnd.3 cell line, a brain endothelioma using Opti-MEM, trypsin-EDTA and DMEM with high glucose (all from Gibco-BRL, Grand Island, N.Y.), Dulbecco's PBS (Irvine Scientific, Irvine, Calif.), sterile, 12 well tissue culture plates and Facsflow solution (from Becton Dickinson, Mansfield, Mass.), ultrapure formaldehyde (Polysciences, Warrington, Pa.), recombinant human TNF-α (R&D Systems, Minneapolis, Minn., mouse interferon-γ (Genzyme, Cambridge, Mass.), and Fraction V, BSA (Sigma, St. Louis, Mo.). The mouse ICAM-1-PE, VCAM-1-FITC, hamster IgG-FITC and rat IgG2α-PE antibodies were purchased from Pharmingen (San Diego, Calif.). Zeta-Probe nylon blotting membrane was purchased from Bio-Rad (Richmond, Calif.). QuickHyb solution was purchased from Stratagene (La Jolla, Calif.). A cDNA labeling kit, Prime-a-Gene, was purchased from ProMega (Madison, Wis.). NAP-5 columns were purchased from Pharmacia (Uppsala, Sweden). Cells are grown to approximately 75% confluency in 12 well plates with DMEM containing 4.5 g/L glucose and 10% FBS. […] Cells are analyzed on a Becton Dickinson FACScan. Results are expressed as percentage of control expression, which is calculated as follows: [((CAM expression for oligonucleotide-treated cytokine induced cells)−(basal CAM expression))/((cytokine-induced CAM expression)−(basal CAM expression))]×100. […]

ICAM-1 [3] = experiment: ICAM-1 expression in bEnd.3 cells (flow cytometry of cell-surface protein, Northern blot of mRNA); assay type: cell-based, mouse; conditions: cell culture, without any cationic lipid adjuvant
From the text: Cholesterol-oligonucleotide assays for ICAM-1 are done in the bEnd.3 cell line, a brain endothelioma using Opti-MEM, trypsin-EDTA and DMEM with high glucose (all from Gibco-BRL, Grand Island, N.Y.), Dulbecco's PBS (Irvine Scientific, Irvine, Calif.), sterile, 12 well tissue culture plates and Facsflow solution (from Becton Dickinson, Mansfield, Mass.), ultrapure formaldehyde (Polysciences, Warrington, Pa.), recombinant human TNF-α (R&D Systems, Minneapolis, Minn., mouse interferon-γ (Genzyme, Cambridge, Mass.), and Fraction V, BSA (Sigma, St. Louis, Mo.). The mouse ICAM-1-PE, VCAM-1-FITC, hamster IgG-FITC and rat IgG2α-PE antibodies were purchased from Pharmingen (San Diego, Calif.). Zeta-Probe nylon blotting membrane was purchased from Bio-Rad (Richmond, Calif.). QuickHyb solution was purchased from Stratagene (La Jolla, Calif.). A cDNA labeling kit, Prime-a-Gene, was purchased from ProMega (Madison, Wis.). NAP-5 columns were purchased from Pharmacia (Uppsala, Sweden). […]
After oligonucleotide treatment, cells are detached from the plates with a short treatment of trypsin-EDTA (1-2 min.). […] Cells are analyzed on a Becton Dickinson FACScan. Results are expressed as percentage of control expression, which is calculated as follows: [((CAM expression for oligonucleotide-treated cytokine induced cells)−(basal CAM expression))/((cytokine-induced CAM expression)−(basal CAM expression))]×100. […]

Substance: Oligomer VI: TGC* ATC CCC CAG GCC ACC AT (P = S), C* = cholesterol carbamate nucleoside Compound 9; cholesterol conjugate of ISIS 3082
- amount of oligonucleotide in kidney, skeletal muscle and skin [1]: reduced in kidney, skeletal muscle and skin
- amount of oligonucleotide in liver [1]: more oligonucleotide is found in the liver
- retention in plasma [1]: retained in the plasma for longer periods of time than is ISIS-3082
- reduction of ICAM expression in liver (ICAM-1 [2]): 40-50%
- inhibition of VCAM-1 expression (VCAM-1): neither molecule show significant inhibition
- effect on ICAM-1 expression (ICAM-1 [3]): inhibits ICAM-1 in a dose dependent manner
